[ ]: non-standard residue; d: D form. F2Pmp = N[C@@H](Cc1ccc(C(F)(F)P(=O)(O)O)cc1)C(=O)O
Assays:
[1] = target: T1, Ac-Asp-Ala-Asp-Glu-F2Pmp-Leu-NH2; assay: ITC
T1 construct: Synthetic hexapeptide printed in three-letter code; also called F2Pmp-containing peptide; non-hydrolyzable substrate analog
T1 peptide: Ac-DADE[F2Pmp]L-NH2
Description: All isothermal titration calorimetry experiments were performed using an MCS Isothermal Titration Calorimetry System from Microcal Inc. (Northampton, Mass.). Experiments at pH 7.0 were conducted at 25° C., in 50 mM 3,3-dimethylglutarate buffer containing 1 mM DTT. The ionic strength of the buffer was adjusted to 0.15 M by addition of NaCl. Protein concentration in the calorimeter cell was 27-85 µM, while the ligand concentration in the syringe was 0.37-1 mM.
A typical titration curve and binding isotherm for the binding of D181A/Q262A to Ac-Asp-Ala-Asp-Glu-F_2Pmp-Leu-NH_2 is shown in FIG. 3. From curve-fitting of the binding isotherms, the stoichiometry for the binding of the peptide to D181A/Q262A was determined to be 1:1.

[2] = tested on: EGF receptor; assay: Substrate pull-down: anti-HA immunoprecipitation of PTP1B forms from EGF-treated COS1 cells, anti-pTyr/anti-EGFR blot; assay type: cell-based, Monkey
Description: FIG. 5 illustrates immunoprecipitation (IP) and Western blots (WB) of the phospho-EGF receptor, and other less abundant PTP1B substrates, by the PTP1B substrate-trapping mutants. Wild-type PTP1B, D181A, D181A/Q262A, D181A/C215S, C215S, or blank vector (pJ3H) was used to transfect COS1 cells (4 μg plasmid/60 mm dish). The cells were maintained at 37° C. for 44-48 h. Twenty minutes before harvesting the cells, 20 ng/ml EGF was added to each dish. The PTP1B proteins were precipitated from the cell lysates using anti-hemagglutinin (anti-HA) antibody-conjugated agarose beads from the cell lysates (500 μg total protein) at 4° C. overnight. The beads were washed 3 times with the lysis buffer, mixed with 2×SDS sample buffer, and then boiled for 5 min. The immunocomplexes were resolved by SDS-PAGE, and transferred onto a nitrocellulose membrane. The membrane was probed with anti-pTyr HRP-conjugated antibody (lower panel). The membrane was then stripped and reblotted with anti-EGFR rabbit polyclonal antibody (middle panel). Thereafter, the membrane was further stripped, and re-probed with anti-HA HRP conjugate (upper panel).
The hemagglutinin-tagged (HA-tagged) full-length human wild-type PTP1B in pJ3H expression vector was a gift from Dr. Chemoff (30). The HA-tagged PTP1B mutants, C215S, D181A, D181A/C215S, and D181A/Q262A, were generated by PCR reactions, according to the standard procedure of the Quick-Change™ site-directed mutagenesis kit (Stratagene), using pJ3H-HA-PTP1B as a template. All mutations were verified by DNA sequencing.
Monkey kidney COS1 cells (ATCC: CRL-1650) were maintained in Dulbecco's modified Eagle's minimum essential medium (DMEM), supplemented with 10% fetal bovine serum (Life Technologies, Inc.), penicillin (50 units/ml), streptomycin (50 μg/ml), and L-glutamine (2 mM) under a humidified atmosphere containing 5% CO2. […] The efficiency of transfection, as assessed by 5-bromo-4-chloro-3-indolyl-β-D galactoside (X-Gal) staining of pCMV-β-gal-transfected (β-Gal staining kit, Invitrogen) COS cells, was 25%. […]

[3] = target: Ac-Asp-Ala-Asp-Glu-F2Pmp-Leu-NH2; assay: Isothermal titration calorimetry, binding of PTP1B and mutants to F2Pmp peptide; conditions: ITC, 25° C. and pH 7.0; data from this study

B1: PTP1B/D181A/Q262A, catalytic domain (residues 1 to 321) (enzyme, human, UniProt P18031 1-321, looked up)
chain: MEMEKEFEQIDKSGSWAAIYQDIRHEASDFPCRVAKLPKNKNRNRYRDVSPFDHSRIKLHQEDNDYINASLIKMEEAQRSYILTQGPLPNTCGHFWEMVWEQKSRGVVMLNRVMEKGSLKCAQYWPQKEEKEMIFEDTNLKLTLISEDIKSYYTVRQLELENLTTQETREILHFHYTTWPAFGVPESPASFLNFLFKVRESGSLSPEHGPVVVHCSAGIGRSGTFCLADTCLLLMDKRKDPSSVDIKKVLLEMRKFRMGLIATADQLRFSYLAVIEGAKFIMGDSSVQDQWKELSHEDLEPPPEHIPPPPRPPKRILEPHN
notes: range 1-321; Used in vitro (ITC, kinetics); also called PTP1B substrate-trapping double mutant
[1]
  fold higher substrate-binding affinity than PTP1B/C215S: 28 fold
[2]
  affinity for EGFR in in vivo substrate-trapping experiments, versus PTP1B/D181A or PTP1B/C215S: much higher affinity
[2]; EGF 20 ng/ml for 20 min, anti-HA immunoprecipitation (FIG. 5)
  quantity of tyrosine-phosphorylated EGF receptor co-precipitated, fold greater than with D181A: more than 3 fold
[2]; anti-HA immunoprecipitation, not visible in D181A or C215S samples (FIG. 5)
  trapping of other tyrosine phosphorylated proteins (P160, P120, P70, P60): trapped several novel, less-abundant tyrosine phosphorylated proteins
[3]
  Kd: 6.8 ± 2.3 nM
